In patent US20140134155A1 (TECHNISCHE UNIVERSIT T DRESDEN, published 2014):
Values belong to the binder of their own block, whether it stands above or below them.

What was measured:
[1] = target: T1, prostate-specific stem cell antigen (PSCA) (human, UniProt O43653 12-83); experiment: cell-based or functional assay
T1 sequence (looked up): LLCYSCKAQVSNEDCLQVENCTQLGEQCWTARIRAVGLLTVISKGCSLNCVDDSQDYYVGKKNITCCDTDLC

[2] = target: T2, prostate-specific stem cell antigen (PSCA) (human) (UniProt O43653); experiment: cell-based or functional assay
T2 sequence (looked up): T1 sequence (looked up)

specific lysis of 51Cr-loaded PC3-PSCA tumor cells (chrome release test, effector target ratio 10:1, 20 h) [1]: > 90%
B1: humanized bispecific scBsTaFv CD3-PSCA(MB1) (bispecific antibody)
chain: QVQLVQSGAEVKKPGASVKVSCKASGYTFTKYVIHWVRQAPGQGLEWMGYINPYNDVSKYNEKFRGRVTMTTDTSTSTAYMELRSLRSDDTAVYYCARNKDYYPMDYWGQGTTVTVSGGGGSGGGGSGGGGSEIVLTQSPATLSLSPGERATLSCSASSSVSYMHWYQQKPGQAPRLLIYDTSKLASGIPARFSGSGSGTDFTLTISSLEPEDFAVYYCQQWSSNPLTFGGGTKVEIKDIQMTQSPSSLSASVGDRVTITCGTSQDINNYLNWYQQKPGKVPKLLIYYTSRLHSGVPSRFSGSGSGTDFTLTISSLQPEDVATYYCQQSKTLPWTFGGGTQLTVLGGGGSGGGGSGASAAGGGGSGGGGSQVQLVESGGGLVKPGGSLRLSCAASGFTFSSYSMSWIRQAPGKGLEWVSYINDSGGSTFYPDTVKGRFTISRDNAKNSLYLQMNSLRAEDTAVYYCARRMYYGNSHWHFDVWGQGTTVTVSS

specific lysis of 51Cr-loaded PC3-PSCA tumor cells (chrome release test) [2]: 60%
B2: murine bispecific scBsTaFv CD3-PSCA(7F5) (bispecific antibody, part only; not given: anti-CD3 scFv, linkers, tags, part only)
chain, part: QVKLQESGGGLVQPGGSLKLSCVASGFTFSSYTMSWVRRTPEKRLEWVAYIHNGGGHTYYPDTIKGRFTISRDNAKNTLFLEMSSLKSEDTAMYYCTRRMYYGNSHWYFDVWGAGTSVTVSDIQMTQSPSSLSASVGDRVTITCRTSQDISNYLNWYQQKPGKAPKLLIYYTLKLNSGVPSRFSGSGSGTDFTFTISSLQPEDIATYYCQQSKTLPWTFGGGTKVEIK

antibody amount giving strong lysis of PSCA-positive cells (chrome release test) [2]: < 1 ng
specific lysis of 51Cr-loaded PC3-PSCA tumor cells (chrome release test) [2]: 80%
B3: murine bispecific scBsTaFv CD3-PSCA(MB1) (bispecific antibody, part only; not given: anti-CD3 scFv and tags, not shown: small tags and cut ends)
chain, part: VQLQESGGVLVQPGGSLKLSCAASGFTFSSYSMSWIRQTPDRRLEWVAYINDSGGSTFYPDTVKGRFSISRDNAKNTLYLQISRLRSGDTAIYYCSRRMYYGNSHWHFDVWGAGTTVTVSSGGGGSGGGGSGGGGSDIVMTQSTSSLSASLGDRVTINCGTSQDINNYLNWYQQKPDGSVKLLIYYTSRLHSGVPSRFSGSGSGTDYSLTISNLEQGDIATYFCQQSKTLPWTFGGGTKLELKRADAAPTVS
